Test results: article PMC8458281, “Computational modeling and experimental validation of the EPI-X4/CXCR4 complex allows rational design of small peptide antagonists” (Communications Biology, 2021)

Legend:
Assay in all cases: flow cytometry on cells; 12G5 antibody competition on 293T cells transiently transfected with CXCR4 wt or mutants (IRES-eGFP vector), eGFP-positive cells gated; serially diluted peptide with a constant concentration of CXCR4 antibody clone 12G5, 2 h; bound antibody read; IC50 by nonlinear regression
Conditions in all cases: one partner purified
[1] = biological target: T1, CXCR4 wt (transfected 293T cells) (human, UniProt P61073-1 1-352)
T1 construct: human CXCR4, isoform 1 or b; eGFP is expressed separately from an IRES, not fused; also called wild-type CXCR4; source: 293T cells, transiently transfected (pcDNA3.1 CXCR4-IRES-eGFP), on cells
T1 sequence (P61073 whole entry, the tested form may be a part, canonical isoform): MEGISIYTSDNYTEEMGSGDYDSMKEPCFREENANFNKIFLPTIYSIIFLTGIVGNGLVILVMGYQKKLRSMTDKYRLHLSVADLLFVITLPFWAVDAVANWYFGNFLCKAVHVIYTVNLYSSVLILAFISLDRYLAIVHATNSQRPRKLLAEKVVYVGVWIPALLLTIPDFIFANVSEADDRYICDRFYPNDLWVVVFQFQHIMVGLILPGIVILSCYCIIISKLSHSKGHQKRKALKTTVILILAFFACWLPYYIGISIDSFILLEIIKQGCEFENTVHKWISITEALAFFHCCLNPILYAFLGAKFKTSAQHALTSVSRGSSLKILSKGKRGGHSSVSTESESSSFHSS

CXCR4 L41A = biological target: T2, CXCR4 L41A (human, UniProt P61073-1 1-352, L41A)
T2 construct: human CXCR4, isoform 1 or b; source: 293T cells, transiently transfected (pcDNA3.1 CXCR4-IRES-eGFP), on cells
T2 sequence (P61073 whole entry L41A, canonical isoform): as the sequence (P61073 whole entry, the tested form may be a part, canonical isoform) above, with L41A counted along it

CXCR4 D97E = biological target: T3, CXCR4 D97E (human, UniProt P61073-1 1-352, D97E)
T3 construct: human CXCR4, isoform 1 or b; source: 293T cells, transiently transfected (pcDNA3.1 CXCR4-IRES-eGFP), on cells
T3 sequence (P61073 whole entry D97E, canonical isoform): as the sequence (P61073 whole entry, the tested form may be a part, canonical isoform) above, with D97E counted along it

CXCR4 D97S = biological target: T4, CXCR4 D97S (human, UniProt P61073-1 1-352, D97S)
T4 construct: human CXCR4, isoform 1 or b; source: 293T cells, transiently transfected (pcDNA3.1 CXCR4-IRES-eGFP), on cells
T4 sequence (P61073 whole entry D97S, canonical isoform): as the sequence (P61073 whole entry, the tested form may be a part, canonical isoform) above, with D97S counted along it

CXCR4 D97T = biological target: T5, CXCR4 D97T (human, UniProt P61073-1 1-352, D97T)
T5 construct: human CXCR4, isoform 1 or b; source: 293T cells, transiently transfected (pcDNA3.1 CXCR4-IRES-eGFP), on cells
T5 sequence (P61073 whole entry D97T, canonical isoform): as the sequence (P61073 whole entry, the tested form may be a part, canonical isoform) above, with D97T counted along it

CXCR4 D97Q = biological target: T6, CXCR4 D97Q (human, UniProt P61073-1 1-352, D97Q)
T6 construct: human CXCR4, isoform 1 or b; source: 293T cells, transiently transfected (pcDNA3.1 CXCR4-IRES-eGFP), on cells
T6 sequence (P61073 whole entry D97Q, canonical isoform): as the sequence (P61073 whole entry, the tested form may be a part, canonical isoform) above, with D97Q counted along it

CXCR4 V112L = biological target: T7, CXCR4 V112L (human, UniProt P61073-1 1-352, V112L)
T7 construct: human CXCR4, isoform 1 or b; source: 293T cells, transiently transfected (pcDNA3.1 CXCR4-IRES-eGFP), on cells
T7 sequence (P61073 whole entry V112L, canonical isoform): as the sequence (P61073 whole entry, the tested form may be a part, canonical isoform) above, with V112L counted along it

CXCR4 D187E = biological target: T8, CXCR4 D187E (human, UniProt P61073-1 1-352, D187E)
T8 construct: human CXCR4, isoform 1 or b; source: 293T cells, transiently transfected (pcDNA3.1 CXCR4-IRES-eGFP), on cells
T8 sequence (P61073 whole entry D187E, canonical isoform): as the sequence (P61073 whole entry, the tested form may be a part, canonical isoform) above, with D187E counted along it

CXCR4 D262A = biological target: T9, CXCR4 D262A (human, UniProt P61073-1 1-352, D262A)
T9 construct: human CXCR4, isoform 1 or b; source: 293T cells, transiently transfected (pcDNA3.1 CXCR4-IRES-eGFP), on cells
T9 sequence (P61073 whole entry D262A, canonical isoform): as the sequence (P61073 whole entry, the tested form may be a part, canonical isoform) above, with D262A counted along it

CXCR4 E277A = biological target: T10, CXCR4 E277A (human, UniProt P61073-1 1-352, E277A)
T10 construct: human CXCR4, isoform 1 or b; source: 293T cells, transiently transfected (pcDNA3.1 CXCR4-IRES-eGFP), on cells
T10 sequence (P61073 whole entry E277A, canonical isoform): as the sequence (P61073 whole entry, the tested form may be a part, canonical isoform) above, with E277A counted along it

CXCR4 D97E + V112A = biological target: T11, CXCR4 D97E + V112A (human, UniProt P61073-1 1-352, D97E | V112A)
T11 construct: human CXCR4, isoform 1 or b; also called D97E plus V112A; source: 293T cells, transiently transfected (pcDNA3.1 CXCR4-IRES-eGFP), on cells
T11 sequence (P61073 whole entry D97E/V112A, canonical isoform): as the sequence (P61073 whole entry, the tested form may be a part, canonical isoform) above, with D97E, V112A counted along it

CXCR4 D97E + V112L = biological target: T12, CXCR4 D97E + V112L (human, UniProt P61073-1 1-352, D97E | V112L)
T12 construct: human CXCR4, isoform 1 or b; also called D97E plus V112L; source: 293T cells, transiently transfected (pcDNA3.1 CXCR4-IRES-eGFP), on cells
T12 sequence (P61073 whole entry D97E/V112L, canonical isoform): as the sequence (P61073 whole entry, the tested form may be a part, canonical isoform) above, with D97E, V112L counted along it

CXCR4 V112A + L41A = biological target: T13, CXCR4 V112A + L41A (human, UniProt P61073-1 1-352, L41A | V112A)
T13 construct: human CXCR4, isoform 1 or b; also called L41A plus V112A; source: 293T cells, transiently transfected (pcDNA3.1 CXCR4-IRES-eGFP), on cells
T13 sequence (P61073 whole entry L41A/V112A, canonical isoform): as the sequence (P61073 whole entry, the tested form may be a part, canonical isoform) above, with L41A, V112A counted along it

IC50 [1]: 6.99 µM
IC50 (CXCR4 L41A): 132 µM
IC50 (CXCR4 D97E): 129 µM
IC50 (CXCR4 D97S): 785 µM
IC50 (CXCR4 D97T): > 1000 µM
IC50 (CXCR4 D97Q): > 1000 µM
IC50 (CXCR4 V112L): 41.1 µM
IC50 (CXCR4 D187E): 8.52 µM
IC50 (CXCR4 D262A): 5.21 µM
IC50 (CXCR4 E277A): 8.91 µM
IC50 (CXCR4 D97E + V112A): 18 µM
IC50 (CXCR4 D97E + V112L): 223 µM
IC50 (CXCR4 V112A + L41A): 78 µM
B1: EPI-X4 (Alb408-423) (peptide)
peptide: LVRYTKKVPQVSTPTL
notes: source: synthetic peptide (Fmoc solid-phase synthesis, HPLC-purified)
